Results as given in patent publication US20060134709A1.
pKd: −log10 of the molar value.

How the values were obtained:
[1] = molecular target: FcγRIIB-Fc fusion protein (human) (UniProt P31994); assay: BIAcore
[2] = molecular target: soluble monomeric FcγRIIIA-linker-AVITAG (human) (UniProt P08637); assay: BIAcore
soluble FcγRIIB (human) = soluble FcγRIIB (human) (UniProt P31994); assay: ELISA
[3] = molecular target: soluble monomeric FcγRIIIA-linker-AVITAG (human) (UniProt P08637); assay: ELISA

Row | Substance | fold increase vs wt (soluble FcγRIIB (human)) [x] | fold increase vs wt [3] [x] | also measured
1 | ch4-4-20 A330V (antibody) | – | – | Koff WT/Mut [1]: 0.61
2 | ch4-4-20 A330V, G427M (antibody) | – | – | Koff WT/Mut [1]: 0.62
3 | ch4-4-20 E233G (antibody) | – | – | Koff WT/Mut [1]: 0.54
4 | ch4-4-20 F243I, V379L (antibody) | – | – | pKd [1]: 6.92; koff [1]: 0.113 s⁻¹; pKd [2]: 7.00; koff [2]: 0.105 s⁻¹
5 | ch4-4-20 F243I, V379L, G420V (antibody) | – | – | pKd [1]: 7.03; koff [1]: 0.101 s⁻¹
6 | ch4-4-20 G316D, A378V, D399E (antibody) | 14 | 1.5 | fold vs wt (soluble FcγRIIB (human)): 14 X; fold vs wt [3]: 1.5 X; pKd [1]: 7.34; koff [1]: 0.06 s⁻¹; pKd [2]: 7.14; koff [2]: 0.117 s⁻¹
7 | ch4-4-20 K334E, T359N, T366S (antibody) | – | 1.5 | fold vs wt [3]: 1.5 X; pKd [1]: 7.14; koff [1]: 0.11 s⁻¹; pKd [2]: 7.26; koff [2]: 0.128 s⁻¹
8 | ch4-4-20 N276Y (antibody) | – | – | Koff WT/Mut [1]: 0.64
9 | ch4-4-20 P247L, N421K (antibody) | – | 3 | fold vs wt [3]: 3 X; pKd [1]: 7.18; koff [1]: 0.065 s⁻¹; pKd [2]: 7.21; koff [2]: 0.108 s⁻¹
10 | ch4-4-20 R292G (antibody) | – | – | Koff WT/Mut [1]: 0.67
11 | ch4-4-20 S298N, K360R, N361D (antibody) | – | – | Koff WT/Mut [1]: 0.67
12 | ch4-4-20 S298N, S407R (antibody) | 7 | 0.5 | –
13 | ch4-4-20 S375C, P396L (antibody) | 4.5 | 1.5 | –
14 | ch4-4-20 S400F, P396L (antibody) | 4.7 | 1.5 | –
15 | ch4-4-20 S400P (antibody) | 6 | 1 | –
16 | ch4-4-20 S407I (antibody) | 4 | 0.5 | –
17 | ch4-4-20 S408I, V215I, V125L (antibody) | 0.75 | 0.5 | –
18 | ch4-4-20 S415I, L251F (antibody) | 0.75 | 0.5 | –

Row | Substance | fold increase vs wt (soluble FcγRIIB (human)) [x] | fold increase vs wt [3] [x] | also measured
19 | ch4-4-20 T215P, K274N, A287G, K334N, L365V, P396L (antibody) | 4 | 2 | –
20 | ch4-4-20 T223I, T256S, L406F (antibody) | 6 | 0.25 | –
21 | ch4-4-20 T225S (antibody) | – | – | fold decrease vs wt (soluble FcγRIIB (human)): 0.5 x; fold decrease vs wt [3]: 0.25 x
22 | ch4-4-20 T250S, P396L (antibody) | 6.8 | 1.5 | –
23 | ch4-4-20 V215I, K290V, P396L (antibody) | 4.6 | 2.2 | –
24 | ch4-4-20 V240A, P396L (antibody) | 4.2 | 1.3 | –
25 | ch4-4-20 V240I, V281M (antibody) | – | – | fold decrease vs wt (soluble FcγRIIB (human)): 0.25 x; fold decrease vs wt [3]: 0.25 x
26 | ch4-4-20 V273I, K326E, L328I, P396L (antibody) | 10.8 | 1.3 | –
27 | ch4-4-20 V282E, V369I, L406F (antibody) | 7 | 0.5 | –
28 | ch4-4-20 V303I, P396L (antibody) | 4 | 1.1 | –
29 | ch4-4-20 V305L, P396L (antibody) | 5.5 | 1.3 | –
30 | ch4-4-20 V323I, P396L (antibody) | 8.2 | 1.1 | –
31 | ch4-4-20 V348M, K334N, F275I, Y202M, K147T (antibody) | 0.75 | 0.5 | –
32 | ch4-4-20 V379M (antibody) | – | – | pKd [2]: 6.80
33 | ch4-4-20 V379M, P396L (antibody) | 5.6 | 1.9 | –
34 | ch4-4-20 V427A, P396L (antibody) | 4.7 | 1.9 | –
35 | ch4-4-20 Y319F, P352L, P396L (antibody) | – | – | pKd [1]: 7.25; pKd [2]: 6.90
